Our source for the Kd values is publication PMC12313019 (2025).

The experiment concerns the target integrin-αvβ1 (UniProt P06756 31-1048; P05556 21-798). Nature of the experiment: SPR.

Sequence of integrin-αvβ1 (P06756 31-992, chain 1 of 2): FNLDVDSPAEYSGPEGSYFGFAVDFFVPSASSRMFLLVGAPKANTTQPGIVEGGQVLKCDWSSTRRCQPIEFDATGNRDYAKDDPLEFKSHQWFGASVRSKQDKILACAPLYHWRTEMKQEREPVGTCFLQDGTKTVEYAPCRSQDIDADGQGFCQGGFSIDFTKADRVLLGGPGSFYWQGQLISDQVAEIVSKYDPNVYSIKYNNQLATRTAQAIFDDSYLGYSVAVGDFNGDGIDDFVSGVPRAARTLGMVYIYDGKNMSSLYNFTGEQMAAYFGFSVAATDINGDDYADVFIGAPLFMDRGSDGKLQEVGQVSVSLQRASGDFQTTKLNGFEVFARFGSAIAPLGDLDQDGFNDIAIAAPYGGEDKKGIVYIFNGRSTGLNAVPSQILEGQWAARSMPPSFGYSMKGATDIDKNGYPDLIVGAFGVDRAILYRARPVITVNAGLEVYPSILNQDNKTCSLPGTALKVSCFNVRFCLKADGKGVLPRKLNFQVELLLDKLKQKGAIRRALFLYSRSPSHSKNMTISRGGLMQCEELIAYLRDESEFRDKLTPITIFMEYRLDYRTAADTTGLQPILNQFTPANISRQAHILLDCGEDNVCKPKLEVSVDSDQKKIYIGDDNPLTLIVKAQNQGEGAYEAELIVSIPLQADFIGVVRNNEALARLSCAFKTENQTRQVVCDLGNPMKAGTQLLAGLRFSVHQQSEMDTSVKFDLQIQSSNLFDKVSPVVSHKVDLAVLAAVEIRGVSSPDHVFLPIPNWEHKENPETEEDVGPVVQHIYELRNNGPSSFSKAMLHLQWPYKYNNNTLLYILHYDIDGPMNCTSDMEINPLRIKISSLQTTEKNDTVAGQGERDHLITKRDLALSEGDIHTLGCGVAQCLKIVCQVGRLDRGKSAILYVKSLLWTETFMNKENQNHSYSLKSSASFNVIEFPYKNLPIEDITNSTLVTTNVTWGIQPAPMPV
Sequence of integrin-αvβ1 (P05556 21-728, chain 2 of 2): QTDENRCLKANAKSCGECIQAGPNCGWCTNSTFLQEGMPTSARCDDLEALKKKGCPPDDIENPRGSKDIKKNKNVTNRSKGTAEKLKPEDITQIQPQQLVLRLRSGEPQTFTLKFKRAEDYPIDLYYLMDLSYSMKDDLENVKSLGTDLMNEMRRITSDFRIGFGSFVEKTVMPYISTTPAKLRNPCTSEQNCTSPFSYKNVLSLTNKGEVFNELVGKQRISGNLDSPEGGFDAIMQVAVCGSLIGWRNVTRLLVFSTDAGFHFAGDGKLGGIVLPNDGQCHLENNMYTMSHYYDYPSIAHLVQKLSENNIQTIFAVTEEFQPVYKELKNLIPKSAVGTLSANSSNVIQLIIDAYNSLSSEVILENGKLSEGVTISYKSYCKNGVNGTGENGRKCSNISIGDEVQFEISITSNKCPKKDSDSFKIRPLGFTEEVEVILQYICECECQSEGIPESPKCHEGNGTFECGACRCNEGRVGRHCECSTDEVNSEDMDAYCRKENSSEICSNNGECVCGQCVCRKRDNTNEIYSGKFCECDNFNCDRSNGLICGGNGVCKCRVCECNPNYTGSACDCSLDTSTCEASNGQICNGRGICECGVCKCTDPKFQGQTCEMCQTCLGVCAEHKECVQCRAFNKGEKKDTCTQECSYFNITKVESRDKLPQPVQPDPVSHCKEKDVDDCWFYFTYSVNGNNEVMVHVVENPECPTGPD

B1: SDC4_(87-131) (peptide)
peptide: NHIPERAGSGSQVPTEPKKLEENEVIPKRISPVEESEDVSNKVSM
modifications: The limits and source of the SPR ligand are not printed. The soluble ectodomain heterodimer is assumed by convention from the UniProt extracellular topology. Alpha-V may be cleaved into heavy and light chains joined by a disulfide. Amine-coupled to a CM5 chip.
As to B1, binding was characterised by a dissociation constant (Kd) of 43.6 nM.
